Numbering of substitutions follows the chain as printed.

For assay [1], the target named is T1, Dog ASGR-1 (dog).
T1 construct: Expressed on HEK 293 cells or as membrane prep on beads; cDNA GenBank XM_546579
T1 chain: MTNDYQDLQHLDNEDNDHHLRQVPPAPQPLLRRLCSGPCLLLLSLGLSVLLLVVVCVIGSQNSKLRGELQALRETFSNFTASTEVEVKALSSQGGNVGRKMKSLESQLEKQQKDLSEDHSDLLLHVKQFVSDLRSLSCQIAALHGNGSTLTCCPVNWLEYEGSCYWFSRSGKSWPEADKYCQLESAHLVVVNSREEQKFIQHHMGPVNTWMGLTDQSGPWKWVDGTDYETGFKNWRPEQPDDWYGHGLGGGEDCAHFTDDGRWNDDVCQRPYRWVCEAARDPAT
Kind of assay: FACS on transfected HEK 293 cells or membrane preps on beads; Y = signal at least 2x irrelevant IgG. Put shortly: (§1)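 Antibodies at normalized concentrations bound 1 h at 4° C to HEK 293 cells expressing each antigen, then Alexa Fluor 647 anti-Fc plus 7-AAD 15 min at 4° C, flow cytometry; empty-vector cells as negative. Alternatively, species ASGR-1 membrane preps on streptavidin beads, antibody 1 h RT, Alexa Fluor 488 anti-Fc; FACS buffer with 1 mM CaCl2 throughout.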

A further assay addresses T2, Pig ASGR-1 (pig).
T2 construct: Expressed on HEK 293 cells or as membrane prep on beads; cDNA GenBank NM_001244458
T2 chain: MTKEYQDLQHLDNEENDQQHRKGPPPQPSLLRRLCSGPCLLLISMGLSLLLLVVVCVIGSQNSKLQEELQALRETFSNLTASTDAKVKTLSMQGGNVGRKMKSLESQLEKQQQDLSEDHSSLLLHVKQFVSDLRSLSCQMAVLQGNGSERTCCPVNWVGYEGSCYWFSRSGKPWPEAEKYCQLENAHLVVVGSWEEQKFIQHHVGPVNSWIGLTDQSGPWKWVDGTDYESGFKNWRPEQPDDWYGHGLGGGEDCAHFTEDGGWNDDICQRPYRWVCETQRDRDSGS
Description: FACS on transfected HEK 293 cells or membrane preps on beads; binding = signal at least 2x irrelevant IgG. Put shortly: as §1

For another assay, the target named is T3, Mouse ASGR-1 (mouse, UniProt P34927 1-284).
T3 construct: Expressed on HEK 293 cells or as membrane prep on beads; cDNA GenBank BC022106.1; also called muASGR-1; mASGR-1
T3 sequence: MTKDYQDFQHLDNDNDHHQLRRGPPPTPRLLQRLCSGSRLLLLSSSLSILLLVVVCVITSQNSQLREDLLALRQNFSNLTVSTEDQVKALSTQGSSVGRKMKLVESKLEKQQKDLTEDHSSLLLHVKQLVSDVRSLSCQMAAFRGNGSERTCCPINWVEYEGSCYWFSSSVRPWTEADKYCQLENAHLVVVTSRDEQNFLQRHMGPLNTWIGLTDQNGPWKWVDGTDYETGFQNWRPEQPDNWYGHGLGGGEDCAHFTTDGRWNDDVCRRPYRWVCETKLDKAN
Kind of assay: FACS on transfected HEK 293 cells or membrane preps on beads; Y = signal at least 2x irrelevant IgG. In a few lines: as §1

Another assay addresses T4, Rat ASGR-1 (rat, UniProt P02706 1-284).
T4 construct: Expressed on HEK 293 cells or as membrane prep on beads; cDNA GenBank NM_012503
T4 sequence: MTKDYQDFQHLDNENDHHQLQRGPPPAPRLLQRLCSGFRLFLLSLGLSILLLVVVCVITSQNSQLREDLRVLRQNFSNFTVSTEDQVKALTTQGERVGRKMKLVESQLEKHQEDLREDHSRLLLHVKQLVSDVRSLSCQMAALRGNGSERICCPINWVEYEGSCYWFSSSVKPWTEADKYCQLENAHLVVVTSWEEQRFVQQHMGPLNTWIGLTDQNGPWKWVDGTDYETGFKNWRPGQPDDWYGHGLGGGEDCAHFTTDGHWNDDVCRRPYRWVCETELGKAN
The assay is described as above. In a few lines: as §1

The target in assay [2] is T1, Dog ASGR-1. Description: FACS on transfected HEK 293 cells or membrane preps on beads; binding = signal at least 2x irrelevant IgG. In a few lines:
as §1

B1: 54E9 (antibody, V domains shown)
VH: QVQLVQSGAEVKKPGASVKVSCKASGYTFNSYGISWVRLAPGQGLEWMGWISAYNGNTKNAQKLQGRVTMTTDTSTSTAYMELRSLRSDDTAVYYCARHDFWSGYYKGMDVWGQGTTVTVSS
VL: not shown
notes: Tested as hybridoma supernatant at normalized concentration
In the case of B1, the figures for the binding result with Dog ASGR-1 [1] and with Pig ASGR-1 were “binds” and “no binding”, respectively.

B2: 12D2 (antibody, V domains shown)
VH: EVQLVESGGGLVKPGGSLRLSCAASGFTFSSYSMNWVRQAPGKGLEWVSSISSSSSYIYYADSVKGRFTISRDNAKNSLYLQMNSLRAEDTAVYYCARLGDYWGQGTLVAVSS
VL: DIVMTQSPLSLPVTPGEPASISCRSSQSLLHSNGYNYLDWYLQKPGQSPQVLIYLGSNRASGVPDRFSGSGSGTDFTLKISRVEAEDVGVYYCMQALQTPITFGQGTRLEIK
notes: as for B1
Turning to B2, the binding result in the assay with Dog ASGR-1 [1], in the assay with Mouse ASGR-1 and in the assay with Rat ASGR-1 was “binds” throughout.

B3: 25A4 (antibody, V domains shown)
VH: QVLLVQSGAEVKRPGASVKVSCKASGYTFTNYDINWVRQATGQGLEWMGWMYPNSGNTGYAQKFQGRVTMTRNTSISTAYMELSSLRSEDTAVYYCASSSGWYYFDYWGQGTLVTVSS
VL: DIVMTQFPDSLAVSLGERATIKCKSSQSVLYSSHNNNYLAWYQQKPGQPPKLLLYWASTRESGVPDRFSGSGSGTEFTLTISSLEAEDVAVYYCQQYYSTPPTFGQGTKVEIK
notes: as for B1
Take B3: the binding result is on record as “binds” in the assay with Rat ASGR-1 and “no binding” with Dog ASGR-1 [2].

B4: 26C4 (antibody, V domains shown)
VH: B3 VH with L3Q, R13K, T41S, Y52N, K63R, S77N
VL: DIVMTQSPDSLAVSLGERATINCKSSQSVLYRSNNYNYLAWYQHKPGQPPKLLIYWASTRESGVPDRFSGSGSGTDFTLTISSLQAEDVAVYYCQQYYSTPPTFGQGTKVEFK
notes: as for B1
Take B4: the values for the binding result in the assay with Rat ASGR-1 and in the assay with Dog ASGR-1 [2] were “binds” and “no binding”, respectively.

B5: 4A2 (antibody, V domains shown)
VH: B3 VH with L3Q, A9T, R13K, Y52H, M70L
VL: DIVMTQSPDSLAVSLGERATINCKSSQSILHSSNNNNYLAWFQQKPGQPPKLLLYWASTRESGVPDRFSGSGSGTDFTLTISSLQPEDVAVYYCQQYYNTPVTFGPGTKVGIK
notes: as for B1
For B5, the binding result in the assay with Rat ASGR-1 is reported as “binds”; with Dog ASGR-1 [2], “no binding”.

B6: 29H8 (antibody, V domains shown)
VH: B3 VH with L3Q, K12Q, R13K, Y52N, K63R, T78A
VL: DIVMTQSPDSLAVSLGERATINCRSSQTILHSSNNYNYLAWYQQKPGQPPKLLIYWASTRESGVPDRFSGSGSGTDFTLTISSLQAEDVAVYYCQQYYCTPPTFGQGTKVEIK
notes: as for B1
B6: the binding result in the assay with Rat ASGR-1 was “binds”; in the assay with Dog ASGR-1 [2], “no binding”.

B7: 193E7 (antibody, V domains shown)
VH: QVQLQQWGAGLLKPSETLSLTCAVYGGSFSGYFWTWIRQPPGKGLEWIGEINHSGSTNYNPSLKSRVTISVDTSKNQFSLKLSSVTAADTAVYYCARDYGADYWGQGTLVAVSA
VL: DIQMTQSPSSLSASVGDRVTITCRASQGIRNDLGWYQQKPGKAPKRLIYSASSLQRGVPSRFSGSGSGTEFTLTISSLQPEDFATYYCLQHKRYPLTFGGGTKVEIK
notes: as for B1
For the molecule B7, the binding result with Dog ASGR-1 [1] is given as “binds”; with Pig ASGR-1, “no binding”.

B8: 5E5 (antibody, V domains shown)
VH: QVQLVESGGGVVQPGRSLRLSCAASGFTFSNYVMHWVRQAPGKGLEWVAVIWYDGSNKYYADSVKGRFTISRDNSKNTLYLQMNSLRAEDTAVYYCTREVYSSGWYDYGMDVWGQGTTVTVSS
VL: B7 VL with S50A, R56S, K92Y, R93S, L96R, G100Q, I106V
notes: as for B1
Regarding B8, the binding result is reported as “binds” with Rat ASGR-1, “no binding” with Dog ASGR-1 [2] and “no binding” with Pig ASGR-1.

B9: 4B1 (antibody, V domains shown)
VH: QVQLQESGPGLVKPSETLSLTCSVSGDSISSYSWSWIRQPAGKGLEWIGRIYTSGSTNYIPSLKSRITMSVDTSKKQFSLKLSSVTAADTAVYYCARDLKSSGCLFFDYWGQGTLVTVSS
VL: DIQMTQSPSSLSASVGDRVTITCRASHTIRTYLNWYQQKPGKAPKLLIYAASSLQSGVPSRINGSGSGTDFTLTITNLQPEDFATYYCQQSYNISFTFGPGTKVDIK
notes: as for B1
With B9, the binding result in the assay with Dog ASGR-1 [1], with Mouse ASGR-1 and with Rat ASGR-1 was “binds” throughout.

B10: 184E7 (antibody, V domains shown)
VH: QVQLVQSGAEVKTPGASVKVSCRASGYTFTSYNMHWVRQVPGQGLEWMGWINPNNGGSNYTQKFQGRVTMTRDTSISTAYMELSRLRSDDTAVYYCARKFGDWGQGTLVTVSS
VL: DIQMTQSPSSRSASIGERVTITCRASQGISNYLAWIQQKPGTAPKSLIYAASSLQSGVSSRFSGSGFGTDFTITISSVQREDFATYYCQQYNGYPFTFGHGTKVDIK
notes: as for B1
In the case of B10, the binding result with Dog ASGR-1 [1], with Mouse ASGR-1 and with Rat ASGR-1 was “binds” in each case.

B11: 4H6 (antibody, V domains shown)
VH: QVQLVQSGAEVKKPGASVKVSCKASGYTFTDYYLHWVRQAPGQGLEWMGWIHPNSGGTNYAQKFQGRVTMTRDTSISTAYMGLSSLRSDDTAVYYCARDGTSSFDYWGQGTLVTVSS
VL: DIQMTQSPSSVSASVGDRVTITCRASQGISRWLAWYQQKPGKAPKLLIYGASSLQSGVPSRFSGSGSGTDFTLTISSLQPEDFAIYYCQQANSFPFTFGPGTKVDIK
notes: as for B1
Turning to B11, the values for the binding result with Mouse ASGR-1, with Rat ASGR-1 and with Dog ASGR-1 [2] were “binds”, “binds” and “no binding”, respectively.

B12: 72G9 (antibody, V domains shown)
VH: EVQLVESGGGLVKPGGSLRLSCAASGFTFSSYSMNWVRQAPGKGLEWVSSISGSSSYIYYADSVKGRFTISRDNAKNSLYLQMNSLRAEDTAVYFCARGGSRGFDPWGQGTLVTVSS
VL: B11 VL with V11L, G28S, S30T, R31S, W32Y, A34N, G50T, I85T, A91S, N92H
notes: as for B1
For B12, the binding result with Dog ASGR-1 [1], with Mouse ASGR-1 and in the assay with Rat ASGR-1 was “binds” each time.

B13: 56E5 (antibody, V domains shown)
VH: QVQLVQSGAEVKKPGASVKVSCQASGYTFTGYHMHWVRQAPGQGLEWMGWINPNNNATNYAQKFQGRVTMTRDTSISTAYMELRRLRSDDTAVYHCARDGTSSFDYWGQGTLVTVSS
VL: B11 VL with S30R, R31K, G50A, I85T
notes: as for B1
As to B13, in the assay with Dog ASGR-1 [2], the binding result was “no binding”.

B14: 22G5 (antibody, V domains shown)
VH: EVQLLESGGGLVQPGGSLRLSCAASGFTFSSYAMNWVRQAPGMGLEWVSVISRSGGYTYYADSVKGRFTISRDNSKNTLYLQMNSLRAEDTAVYYCASRLAVAGSEAFDIWGQGTLVTVSS
VL: DIQMTQSPSSLSASVGDRVTITCRASQNISSYLNWYQQKQGKAPKLLIYAASSLQNGVPSRFSGRGSGTDFTLTISSLQPEDFATYYCQQSYRTPLFTFGPGTKVDFK
notes: as for B1
On to B14, for which the binding result in the assay with Dog ASGR-1 [2] and with Pig ASGR-1 was “no binding” each time.

B15: 198D2 (antibody, V domains shown)
VH: QVQLVESGGGVVQPGRSLRLSCAASGFTFRSYGMHWVRQAPGKGLEWVAVIIYDGSYKYYADSVKGRFTISRDNSKNTLYLQMNSLRAEDTAVYYCARTYSGGMDVWGQGTTVTVSS
VL: QSVLTQPPSVSAAPGQKVTISCSGSSSNIGSNYVSWYQQLPGTAPKVLIYDNNKRPSGIPDRFSGSKSGTSATLGITGLQTGDEADYYCGTWDSRLNVGVFGGGTKLTVL
notes: as for B1
B15: the results for the binding result with Rat ASGR-1 and with Dog ASGR-1 [2] were “binds” and “no binding”, respectively.

The values are drawn from patent US20190248902A1 (published 2019).
